The target of this test is integrin αIIbβ3 (human (endogenous in HEL)) (UniProt P08514). Put plainly: proximity ligation.

Sequence of talin (Q9Y490 whole entry): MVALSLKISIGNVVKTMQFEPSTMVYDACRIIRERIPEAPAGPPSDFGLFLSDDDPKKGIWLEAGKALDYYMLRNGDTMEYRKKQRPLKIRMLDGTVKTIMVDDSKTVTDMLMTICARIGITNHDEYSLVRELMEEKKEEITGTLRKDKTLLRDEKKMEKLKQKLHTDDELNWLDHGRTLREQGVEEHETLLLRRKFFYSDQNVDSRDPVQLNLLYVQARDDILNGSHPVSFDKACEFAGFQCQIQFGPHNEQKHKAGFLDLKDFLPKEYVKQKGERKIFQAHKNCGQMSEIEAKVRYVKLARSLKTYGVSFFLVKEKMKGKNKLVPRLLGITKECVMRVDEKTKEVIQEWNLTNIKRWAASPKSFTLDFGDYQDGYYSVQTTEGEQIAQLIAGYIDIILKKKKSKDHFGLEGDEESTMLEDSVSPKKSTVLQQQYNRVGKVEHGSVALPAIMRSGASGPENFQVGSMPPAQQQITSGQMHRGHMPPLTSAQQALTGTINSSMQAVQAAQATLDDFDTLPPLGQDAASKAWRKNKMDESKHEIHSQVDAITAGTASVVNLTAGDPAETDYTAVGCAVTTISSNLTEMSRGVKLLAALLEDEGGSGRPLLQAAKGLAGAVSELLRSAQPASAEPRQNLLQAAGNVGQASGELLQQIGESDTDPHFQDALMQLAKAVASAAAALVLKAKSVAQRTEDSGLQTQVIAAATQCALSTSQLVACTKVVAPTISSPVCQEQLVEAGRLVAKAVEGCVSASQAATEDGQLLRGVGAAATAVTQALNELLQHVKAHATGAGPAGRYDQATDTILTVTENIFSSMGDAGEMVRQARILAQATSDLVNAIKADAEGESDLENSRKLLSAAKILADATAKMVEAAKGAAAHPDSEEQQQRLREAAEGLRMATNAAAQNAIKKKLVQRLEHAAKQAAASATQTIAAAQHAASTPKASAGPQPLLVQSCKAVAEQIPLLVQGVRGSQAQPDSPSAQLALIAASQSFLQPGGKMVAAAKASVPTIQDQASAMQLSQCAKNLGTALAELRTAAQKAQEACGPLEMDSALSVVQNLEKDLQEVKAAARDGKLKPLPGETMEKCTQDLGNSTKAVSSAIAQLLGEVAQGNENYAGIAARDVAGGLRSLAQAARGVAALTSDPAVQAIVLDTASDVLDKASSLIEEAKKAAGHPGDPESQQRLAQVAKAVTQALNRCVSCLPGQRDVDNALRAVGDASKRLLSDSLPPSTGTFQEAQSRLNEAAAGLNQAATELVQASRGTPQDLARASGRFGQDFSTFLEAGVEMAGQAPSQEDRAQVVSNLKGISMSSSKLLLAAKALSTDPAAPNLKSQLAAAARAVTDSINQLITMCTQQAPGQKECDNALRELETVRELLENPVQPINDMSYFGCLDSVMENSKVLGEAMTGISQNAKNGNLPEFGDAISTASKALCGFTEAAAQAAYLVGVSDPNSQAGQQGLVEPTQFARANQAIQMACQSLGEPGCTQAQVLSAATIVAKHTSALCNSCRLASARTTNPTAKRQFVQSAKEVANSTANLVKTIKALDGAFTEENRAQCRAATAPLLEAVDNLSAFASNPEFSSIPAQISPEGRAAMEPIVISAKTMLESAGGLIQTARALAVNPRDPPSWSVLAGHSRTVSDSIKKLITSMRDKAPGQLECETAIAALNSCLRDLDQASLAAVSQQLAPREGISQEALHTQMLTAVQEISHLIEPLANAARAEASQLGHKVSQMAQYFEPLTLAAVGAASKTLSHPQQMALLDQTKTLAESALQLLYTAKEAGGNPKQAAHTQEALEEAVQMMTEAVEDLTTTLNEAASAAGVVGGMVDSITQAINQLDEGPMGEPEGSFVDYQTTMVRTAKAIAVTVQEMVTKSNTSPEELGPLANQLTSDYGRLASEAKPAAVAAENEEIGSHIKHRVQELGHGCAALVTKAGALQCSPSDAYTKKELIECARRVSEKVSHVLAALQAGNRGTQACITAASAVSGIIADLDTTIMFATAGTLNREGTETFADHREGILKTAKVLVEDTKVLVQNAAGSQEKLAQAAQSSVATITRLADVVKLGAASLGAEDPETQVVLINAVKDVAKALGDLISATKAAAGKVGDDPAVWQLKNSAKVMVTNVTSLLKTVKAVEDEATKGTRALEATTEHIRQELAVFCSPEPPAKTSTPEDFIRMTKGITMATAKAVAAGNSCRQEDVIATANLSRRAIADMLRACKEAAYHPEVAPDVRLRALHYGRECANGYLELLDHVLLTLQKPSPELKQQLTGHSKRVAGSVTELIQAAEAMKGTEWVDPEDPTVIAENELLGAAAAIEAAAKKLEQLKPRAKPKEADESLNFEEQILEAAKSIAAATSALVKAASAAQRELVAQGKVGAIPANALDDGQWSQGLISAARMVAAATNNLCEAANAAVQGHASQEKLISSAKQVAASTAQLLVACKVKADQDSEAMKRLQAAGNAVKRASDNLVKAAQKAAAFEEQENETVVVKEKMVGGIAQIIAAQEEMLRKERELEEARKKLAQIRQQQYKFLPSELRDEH

“FLNa-Del1, filamin A mutant lacking the N-terminal actin-binding domain (CH1-CH2) (domain or fragment)” came in with a PLA dots/cell (with PMA; FLNa-Del1 cells) of 7.2 dots/cell and a PLA dots/cell (without PMA; FLNa-Del1 cells) of 17.6 dots/cell.

Take “talin (from UniProt Q9Y490 1-2541) (natural protein)”: the PLA dots/cell (no PMA; control, FLNa WT and FLNa-Del1 cells) was found to be 5 dots/cell; the PLA dots/cell (with 10 µM ROCK inhibitor Y-27632; FLNa WT cells, Figure 5H) was 17.7 dots/cell; the PLA dots/cell (with PMA and 10 µM EHop-016; FLNa-Del1 cells) came out at 4.4 dots/cell; the PLA dots/cell (with PMA and 10 µM Y-27632; FLNa WT cells) amounted to 10.8 dots/cell. The PLA dots/cell (with PMA and Y-27632; FLNa-Del1 cells) is 13.2 dots/cell; the PLA dots/cell (with PMA, without EHop-016; FLNa-Del1 cells) came to 20.4 dots/cell; the PLA dots/cell (with PMA, without Y-27632; FLNa WT cells) came to 4 dots/cell; the PLA dots/cell (with PMA, without Y-27632; FLNa-Del1 cells) amounted to 14.9 dots/cell. In addition, the PLA dots/cell (with PMA; FLNa WT cells) was 8.2 dots/cell, the PLA dots/cell (with PMA; FLNa-Del1 cells) was found to be 15 dots/cell, the PLA dots/cell (with PMA; FLNa-Del2 cells) came to 21.2 dots/cell and the PLA dots/cell (with PMA; FLNa-WT cells) worked out at 7.1 dots/cell. The substance also registered a PLA dots/cell (without PMA; FLNa-Del1 cells) of 4.6 dots/cell and a PLA dots/cell (without ROCK inhibitor; FLNa WT cells, Figure 5H) of 9.1 dots/cells.

The record behind these values is PMC8924993.
